# Experimental data published in article PMC7749166 (Communications Biology, 2020).
# Substitutions are numbered along the chain they refer to.
# T1: C5aR^R175V/Y258V (Homo sapiens, UniProt P21730, R175V/Y258V)
# T1 construct: Flag (N); His8 (C); made in house; host or cells: HEK-293S cells (BacMam baculovirus)
# T1 sequence (P21730 1-350 R175V/Y258V): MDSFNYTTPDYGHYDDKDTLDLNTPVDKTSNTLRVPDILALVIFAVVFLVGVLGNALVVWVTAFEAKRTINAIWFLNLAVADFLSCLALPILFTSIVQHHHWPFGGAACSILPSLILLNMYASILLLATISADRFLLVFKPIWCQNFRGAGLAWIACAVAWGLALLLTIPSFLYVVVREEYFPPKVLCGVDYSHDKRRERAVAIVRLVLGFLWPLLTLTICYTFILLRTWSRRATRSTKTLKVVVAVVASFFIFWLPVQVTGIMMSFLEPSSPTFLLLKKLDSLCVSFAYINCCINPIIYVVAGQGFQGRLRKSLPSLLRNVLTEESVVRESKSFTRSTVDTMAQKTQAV
# T2: C5aR^D282A (Homo sapiens, UniProt P21730, D282A)
# T2 construct: Flag (N); His8 (C); made in house; host or cells: HEK-293S cells (BacMam baculovirus)
# T2 sequence (P21730 1-350 D282A): T1 sequence (P21730 1-350 R175V/Y258V) with V175R, V258Y, D282A
# B1: C5a: C5a, a large 74-amino acid glycoprotein; endogenous ligand of C5aR (His6-tag at N-terminal end for AFM tips) (protein)
# chain: TLQKKIEEIAAKYKHSVVKKCCYDGACVNNDETCEQRAARISLGPRCIKAFTECCVVASQLRANISHKDMQLGR
# modifications: left off: His6, N-terminal, kept
# Tests used:
# [1] = biological target: T1, C5aR^R175V/Y258V; experiment: 35S-GTPγS binding assay, R175V/Y258V mutant; format: biochemical; conditions: increased concentration of C5a, Fig. S7
# Protocol: (§1) Mutant variants (D282A, D282N, and R175V/Y258V) were generated based on the wtC5aR construct and fully sequenced. Mutant variants were expressed following the same method as for wtC5aR except for some modifications. HEK-293S cells expressing each mutant were pelleted by centrifugation and resuspended in 20 ml buffer containing 20 mM HEPES pH 7.5, 100 mM NaCl, 0.2 μg ml^−1 leupeptin, and 150 μg ml^−1 benzamidine. After 20 min incubation at 25 °C, 20 ml 2X solubilization buffer containing 20 mM HEPES pH 7.5, 100 mM NaCl, 1% dodecyl-maltoside (DDM), 0.2% cholesterol hemisuccinate (CHS), 20% glycerol, 0.2 μg ml^−1 leupeptin, 150 μg ml^−1 benzamidine, and 5 U Salt Active Nuclease (Sigma) was added. Cell membranes were solubilized for 1.5 h at 4 °C. […]
# (§2) For the ^35S-GTPγS binding assays, the membrane of HEK293S GnTI^− cells expressing wtC5aR (~200 µg ml^−1) or mutant variants was incubated with 200 nM purified Gi protein for 30 min on ice in buffer containing 20 mM HEPES pH 7.5, 100 mM NaCl, 5 mM MgCl2, 3 μg ml^−1 BSA, 0.1 μM TCEP, and 5 μM GDP to get the receptor and Gi complex. […] The radiation of bound ^35S-GTPγS was measured on a Beckman LS6500 scintillation counter to determine the binding of ^35S-GTPγS to Gi induced by C5aR activation. […]
# [2] = biological target: T2, C5aR^D282A; experiment: 35S-GTPγS binding assay, D282A mutant; format: biochemical; conditions: increased concentration of C5a, Fig. S7
# Protocol: as §1, §2
# [3] = system: C5aR with mutations Y11F and Y14F; conditions: cited from earlier work
# Source text: In line with our results, intrinsic binding energies have been previously described for intramolecular binding events inv ...
# [4] = system: C5aR2; conditions: cited from earlier work
# Source text: Our mechanistic insights into the C5a binding process to C5aR could offer a new framework to a better understanding or the intriguing functional divergence between the two C5a receptors and could potentially allow delinea ...
molecule,measurement,setting,value
B1,Gi-protein activation vs C5aR^WT,[1],strong reduction in the Gi-protein activation
same,Gi-protein activation vs C5aR^WT,[2],strong reduction in the Gi-protein activation
same,signaling of C5aR induced by C5a upon Y11F and Y14F mutations,[3],could almost abolish the signaling of C5aR
same,C5a binding to C5aR2 upon mutation of three N-terminal tyrosine residues,[4],did not significantly change C5a binding to C5aR2
same,G-protein coupling at C5aR2,[4],without any detectable G-protein coupling
same,β arrestins (βarr) recruitment at C5aR2,[4],robust β arrestins (βarr) recruitment
